# Source: IntAct's records for PubMed 25678599
# B1: B-cell CLL/lymphoma 9-like protein (Mus musculus), Q67FY2 (parent)
# chain: MRILANKTRLPHPRRREAPGSPPLSPRGHCPPAPAKPMHPENKLTNHGKTGNGGAQSQHQNVNQGPTCNLGSKGVGAGSHGAKANQISPSNSSLKNPQAGVSPFSSLKGKVKRERSVSVDSGEQREAGTPSLDSEAKEVAPRSKRRCVLERKQPYSGDEWCSGPDSEEDDKPIAAAHNCNVADPAMVTPQLGPGQTAQLPLSESSAPGPQHGPQPGLRPDVPGGGGGGVPGKPPSQFVYVFTTHLANTAAEAVLQGRAESILAYHQQNVPRAKLDQAPKVPPTPEPLPLNTPSAGTPQSQPPPLPPPPPAPGSAPPALPPEGPPEDTSQDLAPNSVGAASTGGGTGGTHPNTPTAATANNPLPPGGDPGSAPGSALLGEATPTGNGQRNLVGSEGLSKEQLEHRERSLQTLRDIERLLLRSGETEPFLKGPPGGAGEGGPPAQAPSAAQPPPSAPPGGLKKYEEPLQSMISQTQSLGGPPLEHEVPGHPQGGDMGQQMNMMMQRLGQDSLTPEQVAWRKLQEEYYEEKRRKEEQIGLHGGRPLQDMVGMGGMMGRGPPPPYHSKPGDQWPPGMGAQLRGPMDVQDPMQLRPGPPFPGPRFPGNQMQRVPGFGGMQSMPMEVPMNAMQRPVRPGMAWNEDLPPIGGPSNFAQNAVPYPGGQGEAERFMTPRVREELLRHQLLEKRSMGMQRPLGMAGSGMGQSMEMERMIQAHRQMDPAMFPGQMTGGDGLAGTPMGIEFGGGRGLLSPPMGQSGLREVDPPMGPGNLNMNMNVNMNMNMNLNVQMTPQQQMLMSQKMRGPGDMMGPQGLSPEEMARVRAQNSSGMMGGPQKMLMPSQFPNQGQQGFSGGQGPYQAMPQDMGNTPDMFSPDQSSVPMGTVGTARLSHMPLPPASNPPGSVHLASNRGLGRRPSDLTISINQMGSPGMGHLKSPTLSQVHSPLVTSPSANLKSPQTPSQMVPLPSANPPGPLKSPQVLSSSLGVRSPTGSPSRLKSPSMAVPSPGWVASPKTAMPSPGVSQNKQPPLSINSSSTLGNVEQGALPPSAPRNSSSAPPANPSSGLMNPSLPFTSSPDPTPSQNPLSLMMSQMSKYAMPSSTPLYHNAIKTIATSDDELLPDRPLLPPPPPPQGSGPGISNNQPNQMHMNPAAAQSPMGMNLPGQQPLSHEPPPTMLPSPTPLGSNIPLHPNAQGTGGSSQNSMMMAPGGPDSLNAPCGPVPSSSQMMSFPPRLQQPHGAMAPTGAGGPGLQQHYPSGMALPPEDLPTQPPGPIPPQQHLMGKGMTGRMGDAYPPGVLPGVASVLNDPELSEVIRPTPTGIPEFDLSRIIPSEKPSSTLQYFPKSENQPPKAQPPNLHLMNLQNMMAEQTPSRPPNLPGQQGVQRGLSMSMCHPGQMSLLGRTGVPPQQGMVPHGLHQGVMSPPQGLMTQQNFMLMKQRGVGGEVYTQPPHMLSPQGSLMGPPPQQNLMVSHPLRQRSVSLDSQMGYLPTPGSMANLPF
# partner: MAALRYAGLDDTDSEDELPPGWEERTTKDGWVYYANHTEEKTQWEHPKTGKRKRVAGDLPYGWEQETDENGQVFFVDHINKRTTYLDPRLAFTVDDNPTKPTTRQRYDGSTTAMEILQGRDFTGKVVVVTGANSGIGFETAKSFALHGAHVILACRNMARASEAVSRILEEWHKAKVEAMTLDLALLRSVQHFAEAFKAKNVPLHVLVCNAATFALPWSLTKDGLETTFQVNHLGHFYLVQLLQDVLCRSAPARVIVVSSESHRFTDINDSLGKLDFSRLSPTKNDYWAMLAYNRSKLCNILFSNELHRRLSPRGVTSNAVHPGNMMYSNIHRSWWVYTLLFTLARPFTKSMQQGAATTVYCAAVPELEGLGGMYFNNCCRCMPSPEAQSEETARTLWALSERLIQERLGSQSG
# B2: WW domain-containing oxidoreductase (Homo sapiens), Q9NZC7 (parent)
# chain: B1 partner
# partner: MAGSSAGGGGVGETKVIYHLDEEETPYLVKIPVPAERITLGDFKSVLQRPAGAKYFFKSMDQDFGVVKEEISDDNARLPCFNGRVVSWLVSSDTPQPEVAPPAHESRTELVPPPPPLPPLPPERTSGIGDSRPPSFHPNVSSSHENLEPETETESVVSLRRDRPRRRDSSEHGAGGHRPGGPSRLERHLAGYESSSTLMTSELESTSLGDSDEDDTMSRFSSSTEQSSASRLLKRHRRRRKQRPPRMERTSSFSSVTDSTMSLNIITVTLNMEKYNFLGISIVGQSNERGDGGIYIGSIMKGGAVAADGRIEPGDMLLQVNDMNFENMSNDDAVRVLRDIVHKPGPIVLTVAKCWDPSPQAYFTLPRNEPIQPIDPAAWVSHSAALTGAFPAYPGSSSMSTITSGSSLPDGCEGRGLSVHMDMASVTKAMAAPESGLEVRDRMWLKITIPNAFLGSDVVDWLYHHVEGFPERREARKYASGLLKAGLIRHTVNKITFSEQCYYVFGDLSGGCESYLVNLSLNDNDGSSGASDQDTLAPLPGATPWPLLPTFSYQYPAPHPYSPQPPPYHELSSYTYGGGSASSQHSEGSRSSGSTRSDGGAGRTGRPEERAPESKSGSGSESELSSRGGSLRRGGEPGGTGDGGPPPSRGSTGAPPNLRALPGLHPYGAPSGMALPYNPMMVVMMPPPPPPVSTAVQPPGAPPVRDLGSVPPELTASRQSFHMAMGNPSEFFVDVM
# B3: Segment polarity protein dishevelled homolog DVL-2 (Mus musculus), Q60838 (parent)
# chain: B2 partner
# partner: B1 partner
# B4: WW domain-containing oxidoreductase (Homo sapiens), Q9NZC7 (parent)
# chain: B1 partner
# partner: B1 chain
# Variants of: B1
# Details: with wwox_human WWOX, Q9NZC7
row,Variant,effect of a mutation on the interaction
1,Y561A,disrupting interaction

# Variants of: B2
# Details: with dvl2_mouse Dvl2, Q60838
row,Variant,effect of a mutation on the interaction
1,MAALRYAGLDDTDSEDELPPGWEERTTKDGWVRYANHTEEKTQWEHPKTGKRKRVAGDLPYGWEQETDENGQVFFVDHINKRTTYLDPRLAFTVDDNPTKPTTRQRYDGSTTAMEILQGRDFTGKVVVVTGANSGIGFETAKSFALHGAHVILACRNMARASEAVSRILEEWHKAKVEAMTLDLALLRSVQHFAEAFKAKNVPLHVLVCNAATFALPWSLTKDGLETTFQVNHLGHFYLVQLLQDVLCRSAPARVIVVSSESHRFTDINDSLGKLDFSRLSPTKNDYWAMLAYNRSKLCNILFSNELHRRLSPRGVTSNAVHPGNMMYSNIHRSWWVYTLLFTLARPFTKSMQQGAATTVYCAAVPELEGLGGMYFNNCCRCMPSPEAQSEETARTLWALSERLIQERLGSQSG [Y33R],decreasing interaction

# Variants of: B3
# Details: with wwox_human WWOX, Q9NZC7
row,Variant,effect of a mutation on the interaction
1,Y568A,decreasing interaction

# Variants of: B4
# Details: with bcl9l_mouse Bcl9l, Q67FY2
row,Variant,effect of a mutation on the interaction
1,MAALRYAGLDDTDSEDELPPGWEERTTKDGWVRYANHTEEKTQWEHPKTGKRKRVAGDLPYGWEQETDENGQVFFVDHINKRTTYLDPRLAFTVDDNPTKPTTRQRYDGSTTAMEILQGRDFTGKVVVVTGANSGIGFETAKSFALHGAHVILACRNMARASEAVSRILEEWHKAKVEAMTLDLALLRSVQHFAEAFKAKNVPLHVLVCNAATFALPWSLTKDGLETTFQVNHLGHFYLVQLLQDVLCRSAPARVIVVSSESHRFTDINDSLGKLDFSRLSPTKNDYWAMLAYNRSKLCNILFSNELHRRLSPRGVTSNAVHPGNMMYSNIHRSWWVYTLLFTLARPFTKSMQQGAATTVYCAAVPELEGLGGMYFNNCCRCMPSPEAQSEETARTLWALSERLIQERLGSQSG [Y33R],decreasing interaction
